Reference: the supplement of paper PMC10567573
± gives the standard deviation.

Test: protein stability index of a GFP-peptide fusion (GPS, HEK-293T) (PSI 1-6); higher = more stable
[1] = treatment: DMSO, c terminus: a fixed tail appended
[2] = treatment: MLN4924 1 uM, 8 h, c terminus: a fixed tail appended
[3] = treatment: DMSO, c terminus: native
[4] = treatment: MLN4924 1 uM, 8 h, c terminus: native
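Further: 24-mer peptide tiles fused after GFP, lentivirally expressed, FACS-sorted into six equal bins by GFP/DsRed ratio, decoded by Illumina sequencing, PSI is the read-weighted mean bin number.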

Sequence	protein stability index [1]	protein stability index [2]	protein stability index [3]	protein stability index [4]
VNLQRFGMNGQMLCNLGKERFLEL [ETS2]	2.27 ± 0.36	2.27 ± 0.33		
VPPGVVNIVFGTGPRVGEALVSHP [ALDH8A1]	2.21 ± 0.36	2.27 ± 0.35		
VQAWPFTCLPLGVLMKGQHLHLET [PRAME]	2.58 ± 0.3	2.82 ± 0.39		
VQGLMKEYLLSFPAGKTPVPAGEE [VPS39]	3.83 ± 0.39	3.88 ± 0.093		
VQQWLQKGTPASKLILGMPTYGRS [CHIT1]	2.25 ± 0.25	2.51 ± 0.29		
VRFSLGTTTHAPPGVHRRYSALRE [PPFIA4]	2.72 ± 0.19	2.76 ± 0.19		
VRGEDSGRKPERRRLKTTRLKEYT [DAPK3]	3.97 ± 0.45	4.51 ± 0.17		
VRGPLQDSSWYEPSAELVQTRMAV [ZNF232]	2.96 ± 0.17	3.09 ± 0.24		
VRNLFGLDPSSGAIHVLGPIDFEE [PCDHGC5]	2.19 ± 0.14	2.33 ± 0.14		
VRNNRSIIKQLKDVFERDWYSPYA [PLD5]	2.41 ± 0.54	2.41 ± 0.21		
VRSKYNDDIRKGIVLLEELLPKGS [FIS1]	2.87 ± 0.04	2.84 ± 0.14		
VRSLRGEEPVPRERDRDPCGGSGG [LURAP1L]	5.34 ± 0.24	5.35 ± 0.095		
VRVNDGGGSHPSRPNSRHTPSFSG [VDR]	3.72 ± 0.14	3.86 ± 0.19		
VRVNVLLSRYLIEPCGPGKSKLTY [DLC1]	3.25 ± 0.83	2.68 ± 0.38		
VSATKAEAEKDGVKVPTTLAEYCI [UBE2R2]	4.5 ± 0.33	4.5 ± 0.28		
VSFSTGAGGWSNHHFCVILLGFLP [BET1L]	2.82 ± 0.39	2.8 ± 0.36		
VSMLGYPFILPDMVGGNAVPQRTA [MYORG]	2.25 ± 0.42	2.54 ± 0.32		
VSRRLSPRKVSTCTDHELENHSMY [TRIM9]	3.7 ± 0.22	3.77 ± 0.19		
VSSSEQLQSCQAEIIELRRTVNAL [KRT34]	3.02 ± 0.2	2.77 ± 0.3		
VSTNTAMIQTSKTEITELRRTLQG [KRT13]	4.08 ± 0.3	4.06 ± 0.22		
VSVTYCSVSQDFPGSNLNLLTNNS [ETS2]	2.59 ± 0.39	2.32 ± 0.39		

Sequence	protein stability index [1]	protein stability index [2]	protein stability index [3]	protein stability index [4]
VSYQLADGGEPQSVQVDGQARTQK [TNXB]	5.184 ± 0.024	5.21 ± 0.1		
VTCKDKKGYTPLHAAASNGQINVV [ANKRD44]	3.34 ± 0.12	3.24 ± 0.27		
VTFAAMQAQQGRSSLVWLFSQLYL [MCOLN1]	3.03 ± 0.67	2.75 ± 0.47		
VTYMNMTAYNKGRLQSSFWIVDKQ [PLD5]	2.39 ± 0.6	2.33 ± 0.39		
VVIFQREPESKNAPHSQGEYDVYS [PPP2R2C]	2.5 ± 0.23	2.85 ± 0.27		
VVKFVNFLLVNGFQTAIDIFEDRI [TRAF3IP2]	2.33 ± 0.45	2.83 ± 0.59		
VVNHLSCDEARNHYGGVVSLIPLI [SPACA9]	2.2 ± 0.14	2.12 ± 0.24		
VWVGVIRYLTFFHNYNILIATLRV [MCOLN1]	3.13 ± 0.1	2.86 ± 0.37		
WAAKAPGASSREEPPEEPEQCPVI [SPDEF]	5.28 ± 0.31	5.27 ± 0.2		
WAVQGQNVLHGYPKDIYSSFGFPR [MMP1]	2.39 ± 0.18	2.15 ± 0.057		
WCGISTDMWRSENQNRAYVTLAAH [ZBED1]	2.37 ± 0.4	2.07 ± 0.05		
WSIFYFFKSFQYPLPWSECPVVRN [SLC6A17]	2.41 ± 0.17	2.59 ± 0.47		
YALQMEQLNGILLHLESELAQTRA [KRT18]	2.24 ± 0.18	2.43 ± 0.29		
YDMSDTNSDPEVVNVDNLLAAAVV [C18orf25]	4.06 ± 0.35	4.02 ± 0.26		
YEELRNSERAEVQRLEEQERRHRE [RSPH3]	5.4 ± 0.25	5.38 ± 0.28		
YEYDHWDAAIHGFRETEKSRWSEA [ALKBH7]	3.64 ± 0.38	3.73 ± 0.22		
YEYTSCTTFSTTSGYMEGYYTFHF [FBXO3]	3.37 ± 0.42	3.2 ± 0.31		
YFLELTQSFIIPLERYVASLMPLQ [DENND6A]	2.56 ± 0.11	3.15 ± 0.33		
YGRSDVVVLCFSIANPNSLHHVKT [RHOBTB2]	3.33 ± 0.47	2.69 ± 1.8		
YGTKKFMQELTEMLGFRPYRFYFY [SLC6A17]	2.29 ± 0.95	2.28 ± 0.48		
YHCPGSPDHQVPYGHDYPRAAYQQ [TRAF3IP2]	3.13 ± 0.45	3.5 ± 0.28		

Sequence	protein stability index [1]	protein stability index [2]	protein stability index [3]	protein stability index [4]
YHSQDRYEFSSHITRGEHRFHMS [IKZF1]			2.85 ± 0.39	2.86 ± 0.58
YIHSCPKMKYKGQYRPSDLLCPET [ATE1]	2.06 ± 0.29	2.47 ± 0.34		
YIRCQKEVGKSFERHKLKRQDADA [SMG5]	3.46 ± 0.53	3.43 ± 0.23		
YKKAVGLKLKQEKKEAYLKLKQG [WDR88]			2.81 ± 0.4	3.13 ± 0.3
YKSWLKNLAKEQLSRENIQSSLLE [PPEF2]	2.72 ± 0.24	2.86 ± 0.13		
YLLKFLLVGDSDVGKGEILESLQD [RAB40C]	2.72 ± 0.38	2.45 ± 0.49		
YNVIIGWSIFYFFKSFQYPLPWSE [SLC6A17]		3.32 ± 0.67		
YPENDWDTAAPVPQKDLEIFKNF [PRKX]			5.08 ± 0.33	5.33 ± 0.25
YQLGEEALLKFREDEGFVREEEDR [KCNA4]	4.51 ± 0.22	4.85 ± 0.31		
YQNHKITQLKIENNPFAKGFRGSD [TBX5]	2.96 ± 0.5	3.55 ± 0.61		
YQPKRYALSPKTTITMAHLLAARE [FAM98B]	2.31 ± 0.091	2.6 ± 0.39		
YQVHDYLRSKLCSLYENDCIFDKF [PPP2R2B]	2.58 ± 0.71	2.27 ± 0.48		
YRFYFYMWKFVSPLCMAVLTTASI [SLC6A17]		4.42 ± 0.71		
YRGMLDTHHKLCTFILKNPPENSD [EIF5]	3.29 ± 0.2	3.25 ± 0.18		
YRRHVLGIVLQGPALCFAAAIFSL [TMEM175]	2.93 ± 0.18	2.85 ± 0.39		
YSDGADDTFAAYTREQLYQAIFHA [MCOLN1]	2.54 ± 0.23	2.52 ± 0.37		
YSGPPSPHGTLRVCTISSTGPLQP [PKD2L1]	2.65 ± 0.57	2.83 ± 0.3		
YSIPEELEKGSFVGNISKDLGLAP [PCDHGA10]	3.59 ± 0.4	3.7 ± 0.29		
YVASHKIEKEEQEKKRKEEEERRR [ACBD3]	3.2 ± 1.1	4.37 ± 0.73		
YVEVKEGKTWKQICDKHWTAKNSR [LOXL2]	2.62 ± 0.8	3.28 ± 0.61		
YYGFSESAESQGLDGAGLMGFVPH [ADAMTSL2]	3 ± 0.41	3 ± 0.47		
